# Assay results from article PMC5290273 (Nature Communications, 2017).
# B1: His6-tagged wild-type AFF4^ELLBow (AFF4 301–351) [human] / Sumo-ELL2^Occ, wild type [human] (parent complex)
# chain 1: PSQPLDASASGDVSCVDEILKEMTHSWPPPLTAIHTPCKTEPSKFPFPTKE
# chain 2: EPSAIELPDYLIKYIAIVSYEQRQNYKDDFNAEYDEYRALHARMETVARRFIKLDAQRKRLSPGSKEYQNVHEEVLQEYQKIKQSSPNYHEEKYRCEYLHNKLAHIKRLIGEFDQQQAESWS
# B2: Sumo-ELL2^Occ, wild type [human] / fluorescently labelled AFF1^ELLBow peptide 358–390 [modified: C-FAM-GABA- at the N-terminus (FAM: 5-carboxyfluoroscein; GABA: γ-amino-butyric acid spacer); C-terminal amide; C-FAM-GABA- at the N-terminus … (parent complex)
# chain 1: B1 chain 2
# chain 2: EILKEMTHSWPPPLTAIHTPSTAEPSKFPFPTK
# Variants of: B1
# Assay: fluorescence polarisation competition; residual anisotropy at the highest unlabelled AFF4 concentration, about 30 µM read from the x axis; higher residual anisotropy = weaker competition; read off a plot
row,response,Variant
1,~63 mP,chain 1 PSQPLDASASGDVSCVDEILKEDTHSWPPPDTADHTPCKTEPSKFPFPTKE
2,~17 mP,chain 1 PSQPLDASASGDVSCVDEILKEMTHSWPPPDTADHTPCKTEPSKFPFPTKE
3,~46 mP,chain 1 PSQPLDASASGDVSCVDEILKEMTHSDPPPDTADHTPCKTEPSKFPFPTKE

# Variants of: B1
# Assay: as above
# Remark: another data set of the same source
row,response,Variant
1,~7 mP,chain 1 PSQPLDASASGDVSCVPPILKEMTHSWPPPLTAIHTPCKTEPSKFPFPTKE

# Variants of: B2
# Assay: fluorescence polarisation, direct titration; signal at the highest Sumo-ELL2 concentration, about 30 µM read from the x axis; read off a plot
row,response,Variant
1,~7 mP,chain 1 EPSAIELPDYLIKYIAIVSYEQRQNYKDDFNAEYDEYRALEARMETVARRFIKLDAQRKRLSPGSKEYQNVHEEVLQEYQKIKQSSPNYEEEKYRCEYLHAKLAHITRLIGEFDQQQAESWS
